Measured values from patent publication US20210122812A1 (Chugai, published 2021).

Legend:
GC-hIgA-FLAG = biological target: T1, GC-hIgA-FLAG (human); test: SPR (Biacore T200), antibody captured on Protein A/G on a CM5 chip, monomeric IgA injected as analyte, 37 C, running buffer pH 7.4 with 1.2 mM Ca; response normalized to capture ligand = 100 RU; analyte concentration not given [i]
T1 construct: Recombinant human IgA with a FLAG tag, not treated with SPDP; also called unaggregated hIgA; unaggregated human IgA
Description: The obtained antibodies were assessed for their binding to unaggregated hIgA and aggregated hIgA using Biacore™ T200 surface plasma resonance assay (GE Healthcare). The measurement was carried out using as a running buffer, 0.05% Tween 20®, 20 mmol/ACES, 150 mmol/l NaCl (pH 7.4 and pH 5.8) containing 3 μM or 1.2 mM CaCl₂.
After an adequate amount of recombinant Protein A/G (Thermo Scientific) was immobilized onto Sensor chip CM5 (GE Healthcare) by an amino coupling method, antibodies were allowed to bind onto the sensor chip. An appropriate concentration of hIgA (described in Example 1) was injected as an analyte to interact with antibodies on the sensor chip. Then, the sensor chip was regenerated by injecting 10 mmol/L Glycine-HCl, pH 1.5. The measurement was carried out at 37° C.

MRA-hIgA [1] = biological target: T2, MRA-hIgA (human); test: SPR (Biacore T200), antibody captured on Protein A/G, MRA-hIgA as analyte, 37 C, pH 5.8, 3 uM Ca, steady state affinity
T2 construct: also called human IgA; recombinant of human IgA
Description: (§1) Using Biacore™ T200 surface plasma resonance assay (GE Healthcare), the obtained antibodies were assessed for their binding activity to human IgA (dissociation constant KD (M)). The measurement was carried out using as a running buffer 0.05% Tween 20® (polyoxyethylene (20) sorbitan monolaurate), 20 mmol/l ACES, 150 mmol/l NaCl (pH 7.4 or pH 5.8) containing 3 μM or 1.2 mM CaCl₂, or 0.05% Tween 20®, 20 mmol/l ACES, 150 mmol/l NaCl (pH 8.0) containing 0.1 μM or 10 mM CaCl₂.
(§2) After an adequate amount of recombinant Protein A/G (Thermo Scientific) was immobilized onto the Sensor chip CM5 (GE Healthcare) by an amino coupling method, antibodies were allowed to bind onto the sensor chip. An appropriate concentration of MRA-hIgA (described in (1-1)) was injected as an analyte to interact with antibodies on the sensor chip. Then, the sensor chip was regenerated by injecting 10 mmol/l glycine-HCl, pH 1.5. The measurement was carried out at 37° C. From the assay result, the dissociation constant KD (M) was calculated based on curve-fitting analysis and equilibrium constant analysis using Biacore™ T200 Evaluation Software (GE Healthcare).

MRA-hIgA [2] = biological target: T2, MRA-hIgA; test: SPR (Biacore T200), antibody captured on Protein A/G, MRA-hIgA as analyte, 37 C, pH 5.8, 1.2 mM Ca, steady state affinity
Description: as §1, §2

MRA-hIgA [3] = biological target: T2, MRA-hIgA; test: SPR (Biacore T200), antibody captured on Protein A/G, MRA-hIgA as analyte, 37 C, pH 7.4, 1.2 mM Ca, 1:1 binding model
Description: as §1, §2

MRA-hIgA [4] = biological target: T2, MRA-hIgA; test: SPR (Biacore T200), antibody captured on Protein A/G, MRA-hIgA as analyte, 37 C, pH 7.4, 3 uM Ca, steady state affinity
Description: as §1, §2

T2 sequence (VH, as listed by the source): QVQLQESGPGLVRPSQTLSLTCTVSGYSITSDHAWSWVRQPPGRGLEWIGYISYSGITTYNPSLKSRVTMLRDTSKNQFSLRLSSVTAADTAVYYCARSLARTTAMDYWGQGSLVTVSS
T1 sequence (VH, as listed by the source, chain 1 of 2): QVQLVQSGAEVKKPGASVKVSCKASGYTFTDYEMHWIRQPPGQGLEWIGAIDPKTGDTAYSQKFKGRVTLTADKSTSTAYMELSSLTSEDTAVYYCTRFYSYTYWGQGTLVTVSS
T1 sequence (VL, as listed by the source, chain 2 of 2): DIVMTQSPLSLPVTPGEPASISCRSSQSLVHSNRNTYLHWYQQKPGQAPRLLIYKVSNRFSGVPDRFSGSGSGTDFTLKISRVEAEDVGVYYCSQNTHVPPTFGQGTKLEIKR

B1: GA2-IgG1 (antibody, V domains shown)
VH: QVQLVQSGAEVKKPGSSVKVSCKASGGTFSSYAISWVRQAPGQGLEWMGGIIPIFGTANYAQKFQGRVTITADESTSTAYMELSSLRSEDTAVYYCARPRWETAISSDAFDIWGQGTMVTVSS
VL: DIQMTQSPSSLSASVGDRVTITCRASQSISDDLNWYQQKPGKAPKLLIYEASNLQSGVPSRFSGSGSGTDFTLTISSLQPEDFATYYCQQHSSSPLTFGQGTKVEIKR
notes: also called anti-hIgA antibody; anti-human IgA antibody
B1 was tested, and the binding result (GC-hIgA-FLAG) was “binds”, the Kd (MRA-hIgA [1]) was 5 µM and the Kd (MRA-hIgA [2]) was 4 µM. The Kd (MRA-hIgA [3]) was 0.039 µM and the Kd (MRA-hIgA [4]) was 6.7 µM.
